In patent publication US20230143294A1 (SYNBIO TECHNOLOGIES, published 2023):
Positions count from the first letter of the chain named. Read-outs that look alike come from different tables or passages of the source. One block for each binder: values may come before it.

Legend:
[1] = molecular target: T1, human PD-L1 antigen (Beijing Sino Biological Inc, Catalog No. #10084-H08H-100) (human, UniProt Q9NZQ7 19-239); test: BLI (ForteBIO Octet), antibody captured on sensor, human PD-L1 in solution
T1 construct: Bought antigen; also called the antigen

[2] = molecular target: T1, human PD-L1 antigen (Beijing Sino …); test: as above; remark: listed apart in the source

T1 sequence (Q9NZQ7 19-239 limits assumed): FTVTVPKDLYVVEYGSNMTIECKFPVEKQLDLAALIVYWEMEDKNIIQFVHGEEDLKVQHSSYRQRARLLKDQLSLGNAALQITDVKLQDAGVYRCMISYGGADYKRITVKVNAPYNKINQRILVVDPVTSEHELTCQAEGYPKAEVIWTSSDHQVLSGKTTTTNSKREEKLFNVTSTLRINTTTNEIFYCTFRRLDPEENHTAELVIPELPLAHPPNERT

B1: Antibody I-HX-2 (antibody, human IgG4 S228P, kappa, V domains shown)
VH: VQLVQSGAEVKKPGASVKVSCKASGYSFTSYWMHWVRQAPGQGLEWMGAIYPGNSDTSYNQKFKGRVTITAVTSASTAYMELSSLRSEDTAVYYCTRWGDGYYHAMDHWGQGTLVTVSS
VL: DIQMTQSPSSLSASVGDRVTITCRASQDIGNTLNWLQQKPGKAIKRLIYATSSLDSGVPKRFSGSRSGSDYSLTISSLQPEDFATYYCLQYASSPFTFGQGTKLEIKR
notes: also called antibody I sample; candidate antibody I sample
- Kd [1]: 0.0291 nM
- koff [1]: 2.7e-07 s⁻¹
- kon [1]: 9280 M⁻¹ s⁻¹

B2: Antibody I-HX-5 (antibody, human IgG4 S228P, kappa, V domains shown)
VH: VQLVQSGAEVKKPGASVKVSCKASGYTFTSYWMHWVRQAPGQGLEWMGAIYWAHSETSYNQKFKGRVTITAVTSASTAYMELSSLRSEDTAVYYCTHWLEVYFHGMDHWGQGTLVTVSS
VL: B1 VL with D28N, I29G, G30I, A50V, Q90Y, S94Y, P95F
- Kd [1]: 0.459 nM
- koff [1]: 3.27e-06 s⁻¹
- kon [1]: 7120 M⁻¹ s⁻¹

B5: Antibody I-HX-8 (antibody, human IgG4 S228P, kappa, V domains shown)
VH: B2 VH with T27S, S30T, W52P, A53V, L99I, V101A, Y102F, G105L, D107Q
VL: B1 VL with D28N, N31Q, A50S
- Kd [1]: 0.259 nM
- koff [1]: 1.81e-06 s⁻¹
- kon [1]: 6990 M⁻¹ s⁻¹

B9: Antibody II-HX-15 (antibody, human IgG4 S228P, kappa, V domains shown)
VH: VQLVQSGAEVKKPGASVKVSCKASGYTFTSYVMHWVRQAPGQGLEWMGYINPYNDGTKYNEKFKGRVTITSDKSASTAYMELSSLRSEDTAVYYCAWSGAIFEYWGQGTLVTVSS
VL: TQSPSFLSASVGDRVTITCSASSSVSYMHWFQQKPGKSPKLWIYSTSNLASGVPARFSGSGSGTSYSLTISSLQPEDFATYYCQQRSSYPYTFGQGTKLEIKR
notes: also called antibody II sample; candidate antibody II sample
- Kd [2]: 0.149 nM
- koff [2]: 5.6e-07 s⁻¹
- kon [2]: 3760 M⁻¹ s⁻¹

B10: Antibody II-HX-17 (antibody, human IgG4 S228P, kappa, V domains shown)
VH: VQLVQSGAEVKKPGASVKVSCKASGYFFSSFVMHWVRQAPGQGLEWMGYINHFQDATKYNEKFKGRVTITSDKSASTAYMELSSLRSEDTAVYYCARSVGITDYWGQGTLVTVSS
VL: B9 VL with S24T, S26Y, T46Y, P90H
- Kd [2]: 1.82 nM
- koff [2]: 4.92e-06 s⁻¹
- kon [2]: 2710 M⁻¹ s⁻¹

B13: Antibody II-HX-13 (antibody, human IgG4 S228P, kappa, V domains shown)
VH: B9 VH with T27S, W97R, G99I, A100G, F102T, E103D
VL: B9 VL with V25I, Y89F
- Kd [2]: 0.707 nM
- koff [2]: 2.13e-06 s⁻¹
- kon [2]: 3010 M⁻¹ s⁻¹

B15: Antibody II-HX-16 (antibody, human IgG4 S228P, kappa, V domains shown)
VH: B9 VH with T27F, F28Y, Y53F, N54Q, G56I, G99A, I101L, F102S
VL: B9 VL with Q85N, S87Y
- Kd [2]: 3.71 nM
- koff [2]: 9.19e-06 s⁻¹
- kon [2]: 2500 M⁻¹ s⁻¹

B16: Antibody II-HX-10 (antibody, human IgG4 S228P, kappa, V domains shown)
VH: B9 VH with T27S, F28T, T29S, Y31F, P52Y, G56A
VL: B9 VL with T46Y, Q85N, S87T, Y89F, P90H
- Kd [2]: 3.67 nM
- koff [2]: 9.2e-06 s⁻¹
- kon [2]: 2510 M⁻¹ s⁻¹

B17: Antibody II-HX-19 (antibody, human IgG4 S228P, kappa, V domains shown)
VH: B9 VH with T27Y, F28T, P52H, Y53F, N54Q, G56A
VL: B9 VL with V25G, S26Y, S45T
- Kd [2]: 1.23 nM
- koff [2]: 3.75e-06 s⁻¹
- kon [2]: 3040 M⁻¹ s⁻¹

Second part, the binder after the results:

- Kd [1]: 0.271 nM
- koff [1]: 1.92e-06 s⁻¹
- kon [1]: 7080 M⁻¹ s⁻¹
B3: Antibody I-HX-3 (antibody, human IgG4 S228P, kappa, V domains shown)
VH: B2 VH with F28Y, T29Y, S30F, W52H, A53G, H54N, L99A, E100D, V101A, D107N
VL: B1 VL with D28N, G30A, A50V, T51S, Q90Y, S94Y, P95F

- Kd [1]: 0.11 nM
- koff [1]: 8.95e-07 s⁻¹
- kon [1]: 8100 M⁻¹ s⁻¹
B4: Antibody I-HX-4 (antibody, human IgG4 S228P, kappa, V domains shown)
VH: B2 VH with F28Y, T29N, S30F, W52H, A53V, H54Q, E56D
VL: B1 VL with D28E, N31Q, A50V, Q90Y, Y91F

- Kd [1]: 0.0481 nM
- koff [1]: 4.29e-07 s⁻¹
- kon [1]: 8930 M⁻¹ s⁻¹
B6: Antibody I-HX-6 (antibody, human IgG4 S228P, kappa, V domains shown)
VH: B1 VH with T29S, N54Q, D56E, R97H, G99I, Y103F, A105V
VL: B1 VL with D28E, N31Q, A50G, Q90N, A92I

- Kd [1]: 0.046 nM
- koff [1]: 4.1e-07 s⁻¹
- kon [1]: 8920 M⁻¹ s⁻¹
B7: Antibody I-HX-1 (antibody, human IgG4 S228P, kappa, V domains shown)
VH: B1 VH with F28Y, T29Y, S30F, P52H, G53I, D100E, D107N
VL: B1 VL with I29L, T51S, Q90Y, S94T
notes: expressed in HEK 293 or CHO cells

- Kd [1]: 0.047 nM
- koff [1]: 4.27e-07 s⁻¹
- kon [1]: 9090 M⁻¹ s⁻¹
B8: Antibody I-HX-7 (antibody, human IgG4 S228P, kappa, V domains shown)
VH: B1 VH with S30T, P52W, G53A, N54H, D56E
VL: B1 VL with D28E, N31Q, Q90Y, S94T

- Kd [2]: 3.19 nM
- koff [2]: 9.55e-06 s⁻¹
- kon [2]: 2990 M⁻¹ s⁻¹
B11: Antibody II-HX-14 (antibody, human IgG4 S228P, kappa, V domains shown)
VH: B10 VH with H52Y, F53Y, Q54N, V99A, G100A, I101L, T102S, D103E
VL: B9 VL with S24T, V25I, S26T, S45Y, Q85N, S87T, Y89F, P90H

- Kd [2]: 2.8 nM
- koff [2]: 7.71e-06 s⁻¹
- kon [2]: 2750 M⁻¹ s⁻¹
B12: Antibody II-HX-11 (antibody, human IgG4 S228P, kappa, V domains shown)
VH: VQLVQSGAEVKKPGASVKVSCKASGYYTSSPVMHWVRQAPGQGLEWMGYINYFYDGTKYNEKFKGRVTITSDKSASTAYMELSSLRSEDTAVYYCAKSAIAFEYWGQGTLVTVSS
VL: B9 VL with S24T, S26Y, Q85Y, P90W

- Kd [2]: 0.624 nM
- koff [2]: 1.92e-06 s⁻¹
- kon [2]: 3080 M⁻¹ s⁻¹
B14: Antibody II-HX-18 (antibody, human IgG4 S228P, kappa, V domains shown)
VH: B9 VH with T27Y, F28T, T29S, Y31P, W97K, A100G, F102S, E103D
VL: B9 VL with V25A, T46Y, Q85Y, S87T
